Laboratory results from the supplement of paper PMC10567573.
± gives the standard deviation.

Assay: protein stability index of a GFP-peptide fusion (GPS, HEK-293T) (PSI 1-6); higher = more stable
[1] = treatment: DMSO, c terminus: a fixed tail appended
[2] = treatment: MLN4924 1 uM, 8 h, c terminus: a fixed tail appended
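Note: 24-mer peptide tiles fused after GFP, lentivirally expressed, FACS-sorted into six equal bins by GFP/DsRed ratio, decoded by Illumina sequencing, PSI is the read-weighted mean bin number.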

Row | Sequence | protein stability index [1] | protein stability index [2] | protein stability index (treatment: DMSO, c terminus: native) | protein stability index (treatment: MLN4924 1 uM, 8 h, c terminus: native)
1 | SKNLIYRDVKPENFLIGRQGNKKE [CSNK1G1] | 4.26 ± 0.22 | 4.28 ± 0.18 | – | –
2 | KHRIRRVLIVDWDVHHGQGTQFTF [HDAC6] | 3.35 ± 0.42 | 3.14 ± 0.83 | – | –
3 | ARVTGELTMTFPAGIVRVFSGTPP [FCHO1] | 2.51 ± 0.16 | 2.43 ± 0.23 | – | –
4 | SSQGVATPAITVSNSCPAELPNIK [TFE3] | 5 ± 0.11 | 4.96 ± 0.24 | – | –
5 | TCLPLGVLMKGQHLHLETFKAVLD [PRAME] | 2.36 ± 0.25 | 2.32 ± 0.32 | – | –
6 | TGKGPSTHTQIDQQPPRLLIVHIA [M1AP] | 2.54 ± 0.34 | 2.44 ± 0.6 | – | –
7 | LMPGVPPLMPGMPPVMPGMPPGLH [ZNF207] | 3.02 ± 0.33 | 2.99 ± 0.32 | – | –
8 | AAAQSYPGYLPYSPEPPSLYGALN [IRX6] | 2.68 ± 0.077 | 2.87 ± 0.2 | – | –
9 | CVARPGTPSLLRFALASLLQSAPD [ZSWIM9] | 2.19 ± 0.18 | 2.24 ± 0.31 | – | –
10 | GGDEVDDSVSVNDIDLSLYIPRDV [ZC3H15] | 4.62 ± 0.13 | 4.45 ± 0.61 | – | –
11 | TAENERLQKKVEQLSRELSTLRNL [CEBPB] | 3.69 ± 0.2 | 3.95 ± 0.2 | – | –
12 | NCPGQYTFSMPSDSHVSSCSEDWV [CD69] | 3.8 ± 0.21 | 4.06 ± 0.22 | – | –
13 | LQSTYATPVDMWSVGCIFAEMFRR [CDK4] | 2.32 ± 0.42 | 2.37 ± 0.41 | – | –
14 | PGEEKFENLEGVPSVCSENIHPQV [ZNF263] | 4.96 ± 0.23 | 4.96 ± 0.38 | – | –
15 | VSGINHDVTSGDHGDYFRLLLPGI [CPN1] | 2.46 ± 0.28 | 2.23 ± 0.38 | – | –
16 | YQLCHALRFLHENQLTHTDLKPEN [CLK3] | 4.62 ± 0.23 | 4.76 ± 0.37 | – | –
17 | YSKPGLSMRLLESKKGLSFFAFEH [TCF25] | 2.12 ± 0.33 | 2.08 ± 0.38 | – | –

Row | Sequence | protein stability index [1] | protein stability index [2] | protein stability index (treatment: DMSO, c terminus: native) | protein stability index (treatment: MLN4924 1 uM, 8 h, c terminus: native)
18 | KICESLNVPVDDSLVKELLRMCSH [EFHC1] | 2.11 ± 0.21 | 2.09 ± 0.44 | – | –
19 | RTSLSSGATVRSFSINSRLASSLG [CDC14A] | 2.76 ± 0.34 | 2.99 ± 0.48 | – | –
20 | TVGVYEAAKLLNVDPDNVVLCLLA [GADD45A] | 2.26 ± 0.17 | 2.4 ± 0.22 | – | –
21 | LTNNVDLDNTKKKMEIYQKENKDV [MNAT1] | 5.34 ± 0.3 | 5.31 ± 0.19 | – | –
22 | QHCRQSLASRIRSNKKMLLLVGGL [KLHL14] | 2.54 ± 0.83 | 2.24 ± 0.43 | – | –
23 | SQLSMKAGLENTVAETECRYALQL [KRT13] | 3.37 ± 0.2 | 3.35 ± 0.25 | – | –
24 | FNYSVGFKDLNESLNALEDQDLDA [APBB1IP] | 4.13 ± 0.33 | 3.98 ± 0.68 | – | –
25 | AGHCSASPGPAAPTARMPGRLRG | – | – | 3 ± 0.6 | 2.93 ± 0.73
26 | LKPLLSPSSETTVTVELPEADRAG [LYSMD4] | 5.04 ± 0.23 | 5.07 ± 0.28 | – | –
27 | VTFKLDDGAISAHKPLLICSCEWM [RHOBTB1] | 3.08 ± 0.33 | 2.56 ± 0.62 | – | –
28 | RIHVLPSLNPDGYEKAYEGGSELG [CPXM2] | 3.93 ± 0.11 | 4.36 ± 0.36 | – | –
29 | FIGETLLSMNWAIVADILLYVVIP [SPNS1] | 3.29 ± 0.34 | 3.45 ± 0.25 | – | –
30 | MGWEGPNSRVDDTFWASWRAFAQI [MIR22HG] | 2.45 ± 0.28 | 2.21 ± 0.17 | – | –
31 | TRGWVQTLARMSRRTRGPVERAAA [C6orf223] | 3.23 ± 0.22 | 3.57 ± 0.098 | – | –
32 | GSQIHDQFILRVSPDLEWHAACLK [ISL2] | 2.3 ± 0.43 | 2.66 ± 0.54 | – | –
33 | SVEYGYRPGATAVPTPLTNVQILL [FCHO1] | 2.06 ± 0.62 | 2.03 ± 0.48 | – | –
34 | AKELTAEKRLEGQEEEEDNRDSSM [CHGA] | 5.67 ± 0.22 | 5.61 ± 0.31 | – | –
